The values below come from PMC8146696, “Live-Cell Analysis of Human Cytomegalovirus DNA Polymerase Holoenzyme Assembly by Resonance Energy Transfer Methods” (Microorganisms, 2021).

Numbering of substitutions follows the chain as printed. Names may count otherwise.

The labels stand for the following.
B1: FLAG-tagged ppUL44 (natural protein)
chain: MDRKTRLSEPPTLALRLKPYKTAIQQLRSVIRALKENTTVTFLPTPSLILQTVRSHCVSKITFNSSCLYITDKSFQPKTINNSTPLLGNFMYLTSSKDLTKFYVQDISDLSAKISMCAPDFNMEFSSACVHGQDIVRESENSAVHVDLDFGVVADLLKWIGPHTRVKRNVKKAPCPTGTVQILVHAGPPAIKFILTNGSELEFTANNRVSFHGVKNMRINVQLKNFYQTLLNCAVTKLPCTLRIVTEHDTLLYVASRNGLFAVENFLTEEPFQRGDPFDKNYVGNSGKSRGGGGGGGSLSSLANAGGLHDDGPGLDNDLMNEPMGLGGLGGGGGGGGKKHDRGGGGGSGTRKMSSGGGGGDHDHGLSSKEKYEQHKITSYLTSKGGSGGGGGGGGGGLDRNSGNYFNDAKEESDSEDSVTFEFVPNTKKQKCG
notes: also called FLAG-UL44; pDESTnFLAG-UL44; source: HEK293T or HEK293A-derived cell lines, transiently transfected, in cells
B2: HCMV DNA polymerase catalytic subunit pUL54, C-terminal domain UL54(1125–1242) (domain or fragment)
chain: VSRSDAIDGTDDDADGGGVEESNRRGGEPAKKRARKPPSAVCNYEVAEDPSYVREHGVPIHADKYFEQVLKAVTNVLSPVFPGGETARKDKFLHMVLPRRLHLEPAFLPYSVKAHECC
notes: also called CFP-UL54(1125–1242); RLuc-UL54; source: HEK293T, transiently transfected, in cells; not shown: CFP (FRET) or RLuc (BRET), N-terminal, kept
B3: HCMV DNA polymerase processivity factor ppUL44, UL44(2–433), wild type (natural protein)
chain: DRKTRLSEPPTLALRLKPYKTAIQQLRSVIRALKENTTVTFLPTPSLILQTVRSHCVSKITFNSSCLYITDKSFQPKTINNSTPLLGNFMYLTSSKDLTKFYVQDISDLSAKISMCAPDFNMEFSSACVHGQDIVRESENSAVHVDLDFGVVADLLKWIGPHTRVKRNVKKAPCPTGTVQILVHAGPPAIKFILTNGSELEFTANNRVSFHGVKNMRINVQLKNFYQTLLNCAVTKLPCTLRIVTEHDTLLYVASRNGLFAVENFLTEEPFQRGDPFDKNYVGNSGKSRGGGGGGGSLSSLANAGGLHDDGPGLDNDLMNEPMGLGGLGGGGGGGGKKHDRGGGGGSGTRKMSSGGGGGDHDHGLSSKEKYEQHKITSYLTSKGGSGGGGGGGGGGLDRNSGNYFNDAKEESDSEDSVTFEFVPNTKKQKCG
notes: also called YFP-UL44; CFP-UL44; source: HEK293T, transiently transfected, in cells; YFP-UL44 also stably expressed in HEK293A (lentiviral transduction, puromycin); RLuc-UL44 also stably expressed in HEK293A clone 1B2 (G418); not shown: YFP (acceptor copy) or CFP (FRET donor copy) or RLuc (BRET donor copy), N-terminal, kept
B4: ppUL44 UL44(2–433) L86A/L87A (natural protein)
chain: B3 chain with L85A, L86A
notes: source: HEK293T, transiently transfected, in cells; not shown: YFP (acceptor copy) or CFP (FRET donor copy) or RLuc (BRET donor copy), N-terminal, kept
B5: ppUL44 UL44(2–433) I135A (natural protein)
chain: B3 chain with I134A
notes: source: HEK293T, transiently transfected, in cells; not shown: YFP (acceptor copy) or RLuc (BRET donor copy), N-terminal, kept

Series [1] concerns the target ppUL44 UL44(2–433) ΔNLS (K428V/K429A/K431) (human cytomegalovirus (HCMV)) (UniProt P16790). Description: FRET or BRET; BRET saturation in living HEK293T cells; fixed RLuc donor plasmid, increasing YFP acceptor plasmid (0-500 ng); one-site hyperbola of BRET ratio against YFPnet/RLuc gives B50 (relative affinity).
Series [2] deals with ppUL44 UL44(2–433) Δloop (R165G/K167N/K168G) (human cytomegalovirus (HCMV)) (UniProt P16790). The description is as above.
In series [3] the target is pUL54 C-terminal 20 aa C-terminal 20 aa (Human cytomegalovirus) (UniProt P08546). To be noted: cited from earlier work.
Series [4] deals with UL44Δ290 1-290 (Human cytomegalovirus) (UniProt P16790). The experiment in a line: gel filtration. To be noted: cited from earlier work. (In general: In gel filtration, larger molecules generally elute earlier.)
Series [5] has as its target B2. The experiment in a line: FRET or BRET; BRET inhibition, system 1: HEK293T transiently expressing RLuc donor and YFP-UL44 acceptor at about 50% of BRETmax, with increasing amounts of pDESTnFLAG-UL44 or pDESTnFLAG-UL42. To be noted: partners not purified.
Series [6] deals with B3. Description: FRET or BRET; BRET saturation in living HEK293T cells; fixed RLuc donor plasmid, increasing YFP acceptor plasmid (0-500 ng); one-site hyperbola of BRET ratio against YFPnet/RLuc gives B50 (relative affinity). As to conditions: partners not purified. Background: In BRET a luciferase serves as donor, and the signal depends on an acceptor being close.
Series [7] deals with B4. The description is as above. As to conditions: partners not purified.
The target of series [8] is B5. Described as above. To be noted: partners not purified.
Series [9] deals with the molecule itself. The experiment in a line: FRET or BRET; BRET in monoclonal HEK293A lines (from clone 1B2) stably expressing both YFP-UL44 and RLuc-UL44.
Series [10] concerns the molecule itself. Description: FRET or BRET; BRET at one donor/acceptor ratio in living HEK293T cells; RLuc fusion donor with or without YFP-UL44 acceptor, both transient; 48 h post transfection, cells in PBS, coelenterazine 5 uM.
Series [11] deals with the molecule itself. Description: FRET or BRET; BRET saturation in living HEK293T cells; fixed RLuc donor plasmid, increasing YFP acceptor plasmid (0-500 ng); one-site hyperbola of BRET ratio against YFPnet/RLuc gives B50 (relative affinity).

Regarding “HCMV DNA polymerase catalytic subunit pUL54, C-terminal domain UL54(1125–1242) (from UniProt P08546 1125-1242) (domain or fragment)”, the B50 is 15.1 in series [1] and 34.4 in series [2].

Take “ppUL44 UL44(2–433) Δloop (R165G/K167N/K168G) (from UniProt P16790 2-433) (natural protein)”: in series [2], the B50 is 12.6.

As for “ppUL44 UL44(2–433) ΔNLS (K428V/K429A/K431) (from UniProt P16790 2-433) (natural protein)”, in series [1], the B50 turned out to be 11.2.

One may read the Kd as the constant that tells how readily two partners part at equilibrium. Turning to UL44Δ290 1-290 (from UniProt P16790), the Kd is 700 nM in series [3] and 250 nM in series [4].

As to B1, in series [5], the “percent inhibition of the RLuc-UL54/YFP-UL44 BRET ratio” value is around 40%.

On to B2, for which the B50 in series [6] was 20; in [7], 11.5; in [8], 81.2.

As to B3, the BRET ratio in [9] amounted to 0.17; in [10], 0.36 ± 0.1. The B50 in series [11] was 19.

With B4, the B50 in [11] stood at 73.7.

For B5, in series [11], the B50 was found to be 25.5.
